Experimental data published in the supplement of paper PMC9112550, “Optimization of the antimicrobial peptide Bac7 by deep mutational scanning” (BMC Biology, 2022).

Test system: Escherichia coli TOP10
Assay: shrunken log2 fold change of peptide-encoding DNA abundance (4.5 h post-induction vs induction); higher = less antimicrobial activity (less host growth inhibition)
Conditions: time post-induction: 4.5 h; library: site-saturation at positions 5, 18, 19, 20
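Also: peptides expressed intracellularly from a pBAD plasmid library in pooled LB shake-flask culture, induced with 0.3% L-arabinose, DNA abundance read by NGS, three biological replicates, DESeq2 with apeglm shrinkage.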

RRIRRRPPRLPRPRPRPRVFPRP
shrunken log2 fold change: 0.849

RRIRRRPPRLPRPRPRPRVIPRP
shrunken log2 fold change: 0.0591

RRIRRRPPRLPRPRPRPRVVPRP
shrunken log2 fold change: 0.215

RRIRRRPPRLPRPRPRPRWDPRP
shrunken log2 fold change: 0.457

RRIRRRPPRLPRPRPRPRYYPRP
shrunken log2 fold change: -0.438

RRIRRRPPRLPRPRPRPSAAPRP
shrunken log2 fold change: 1.13

RRIRRRPPRLPRPRPRPSAWPRP
shrunken log2 fold change: 0.462

RRIRRRPPRLPRPRPRPSCVPRP
shrunken log2 fold change: 0.259

RRIRRRPPRLPRPRPRPSEAPRP
shrunken log2 fold change: -0.0295

RRIRRRPPRLPRPRPRPSESPRP
shrunken log2 fold change: 0.0539

RRIRRRPPRLPRPRPRPSFIPRP
shrunken log2 fold change: -0.391

RRIRRRPPRLPRPRPRPSHPPRP
shrunken log2 fold change: 0.167

RRIRRRPPRLPRPRPRPSHTPRP
shrunken log2 fold change: 0.278

RRIRRRPPRLPRPRPRPSKPPRP
shrunken log2 fold change: 0.241

RRIRRRPPRLPRPRPRPSLYPRP
shrunken log2 fold change: -0.35

RRIRRRPPRLPRPRPRPSMHPRP
shrunken log2 fold change: 0.324

RRIRRRPPRLPRPRPRPSMQPRP
shrunken log2 fold change: 0.404

RRIRRRPPRLPRPRPRPSMWPRP
shrunken log2 fold change: 0.168

RRIRRRPPRLPRPRPRPSNSPRP
shrunken log2 fold change: -0.108

RRIRRRPPRLPRPRPRPSTVPRP
shrunken log2 fold change: -0.117

RRIRRRPPRLPRPRPRPSWQPRP
shrunken log2 fold change: 0.133

RRIRRRPPRLPRPRPRPSWTPRP
shrunken log2 fold change: 0.46

RRIRRRPPRLPRPRPRPSYGPRP
shrunken log2 fold change: -0.83

RRIRRRPPRLPRPRPRPSYLPRP
shrunken log2 fold change: -0.36

RRIRRRPPRLPRPRPRPTAQPRP
shrunken log2 fold change: 0.244

RRIRRRPPRLPRPRPRPTASPRP
shrunken log2 fold change: 0.146

RRIRRRPPRLPRPRPRPTEKPRP
shrunken log2 fold change: 0.155

RRIRRRPPRLPRPRPRPTFFPRP
shrunken log2 fold change: 0.722

RRIRRRPPRLPRPRPRPTGVPRP
shrunken log2 fold change: 0.616

RRIRRRPPRLPRPRPRPTKEPRP
shrunken log2 fold change: -0.0782

RRIRRRPPRLPRPRPRPTKFPRP
shrunken log2 fold change: 0.0982

RRIRRRPPRLPRPRPRPTLAPRP
shrunken log2 fold change: 0.939

RRIRRRPPRLPRPRPRPTMWPRP
shrunken log2 fold change: 0.364

RRIRRRPPRLPRPRPRPTNPPRP
shrunken log2 fold change: 0.122

RRIRRRPPRLPRPRPRPTNQPRP
shrunken log2 fold change: 0.111

RRIRRRPPRLPRPRPRPTPPPRP
shrunken log2 fold change: 0.845

RRIRRRPPRLPRPRPRPTQWPRP
shrunken log2 fold change: 0.183

RRIRRRPPRLPRPRPRPTRIPRP
shrunken log2 fold change: 0.71

RRIRRRPPRLPRPRPRPTSNPRP
shrunken log2 fold change: 0.123

RRIRRRPPRLPRPRPRPTTKPRP
shrunken log2 fold change: 0.0527

RRIRRRPPRLPRPRPRPTTVPRP
shrunken log2 fold change: 0.792

RRIRRRPPRLPRPRPRPTVLPRP
shrunken log2 fold change: -0.227

RRIRRRPPRLPRPRPRPTVSPRP
shrunken log2 fold change: 0.119

RRIRRRPPRLPRPRPRPTVYPRP
shrunken log2 fold change: -0.135

RRIRRRPPRLPRPRPRPTWKPRP
shrunken log2 fold change: 0.112

RRIRRRPPRLPRPRPRPVCLPRP
shrunken log2 fold change: 0.149

RRIRRRPPRLPRPRPRPVDMPRP
shrunken log2 fold change: 0.0522

RRIRRRPPRLPRPRPRPVDRPRP
shrunken log2 fold change: 0.0916

RRIRRRPPRLPRPRPRPVGGPRP
shrunken log2 fold change: 0.984

RRIRRRPPRLPRPRPRPVHFPRP
shrunken log2 fold change: -0.278

RRIRRRPPRLPRPRPRPVHYPRP
shrunken log2 fold change: 0.0593

RRIRRRPPRLPRPRPRPVILPRP
shrunken log2 fold change: -0.259

RRIRRRPPRLPRPRPRPVKVPRP
shrunken log2 fold change: -0.1

RRIRRRPPRLPRPRPRPVLRPRP
shrunken log2 fold change: 1.11

RRIRRRPPRLPRPRPRPVMPPRP
shrunken log2 fold change: 0.338

RRIRRRPPRLPRPRPRPVMVPRP
shrunken log2 fold change: -0.153

RRIRRRPPRLPRPRPRPVNPPRP
shrunken log2 fold change: 0.391

RRIRRRPPRLPRPRPRPVNQPRP
shrunken log2 fold change: 0.129

RRIRRRPPRLPRPRPRPVPKPRP
shrunken log2 fold change: 0.234

RRIRRRPPRLPRPRPRPVPPPRP
shrunken log2 fold change: 0.77

RRIRRRPPRLPRPRPRPVQCPRP
shrunken log2 fold change: -0.138

RRIRRRPPRLPRPRPRPVQRPRP
shrunken log2 fold change: 0.254

RRIRRRPPRLPRPRPRPVQWPRP
shrunken log2 fold change: 0.143

RRIRRRPPRLPRPRPRPVSEPRP
shrunken log2 fold change: 0.34

RRIRRRPPRLPRPRPRPVSNPRP
shrunken log2 fold change: -0.111

RRIRRRPPRLPRPRPRPVTCPRP
shrunken log2 fold change: -0.108

RRIRRRPPRLPRPRPRPVTMPRP
shrunken log2 fold change: 0.0683

RRIRRRPPRLPRPRPRPVVCPRP
shrunken log2 fold change: 0.0897

RRIRRRPPRLPRPRPRPVWPPRP
shrunken log2 fold change: 0.36

RRIRRRPPRLPRPRPRPVWVPRP
shrunken log2 fold change: 0.566

RRIRRRPPRLPRPRPRPVYVPRP
shrunken log2 fold change: -0.198

RRIRRRPPRLPRPRPRPWADPRP
shrunken log2 fold change: -0.143

RRIRRRPPRLPRPRPRPWCTPRP
shrunken log2 fold change: -0.0123

RRIRRRPPRLPRPRPRPWDLPRP
shrunken log2 fold change: -0.04

RRIRRRPPRLPRPRPRPWESPRP
shrunken log2 fold change: 0.0904

RRIRRRPPRLPRPRPRPWIIPRP
shrunken log2 fold change: -0.021

RRIRRRPPRLPRPRPRPWKLPRP
shrunken log2 fold change: -0.0807

RRIRRRPPRLPRPRPRPWMYPRP
shrunken log2 fold change: -0.305

RRIRRRPPRLPRPRPRPWNPPRP
shrunken log2 fold change: -0.212

RRIRRRPPRLPRPRPRPWSCPRP
shrunken log2 fold change: 0.0681

RRIRRRPPRLPRPRPRPWSGPRP
shrunken log2 fold change: 0.0397

RRIRRRPPRLPRPRPRPWSPPRP
shrunken log2 fold change: 0.186

RRIRRRPPRLPRPRPRPWSQPRP
shrunken log2 fold change: -0.132

RRIRRRPPRLPRPRPRPWVEPRP
shrunken log2 fold change: 0.0269

RRIRRRPPRLPRPRPRPWVRPRP
shrunken log2 fold change: -0.0986

RRIRRRPPRLPRPRPRPWWLPRP
shrunken log2 fold change: -0.00877

RRIRRRPPRLPRPRPRPWWPPRP
shrunken log2 fold change: 0.0939

RRIRRRPPRLPRPRPRPWYDPRP
shrunken log2 fold change: -0.25

RRIRRRPPRLPRPRPRPWYWPRP
shrunken log2 fold change: -0.039

RRIRRRPPRLPRPRPRPYADPRP
shrunken log2 fold change: -0.0932

RRIRRRPPRLPRPRPRPYAEPRP
shrunken log2 fold change: 0.132

RRIRRRPPRLPRPRPRPYAYPRP
shrunken log2 fold change: -0.189

RRIRRRPPRLPRPRPRPYCEPRP
shrunken log2 fold change: -0.102

RRIRRRPPRLPRPRPRPYCMPRP
shrunken log2 fold change: -0.546

RRIRRRPPRLPRPRPRPYCYPRP
shrunken log2 fold change: -0.101

RRIRRRPPRLPRPRPRPYDNPRP
shrunken log2 fold change: -0.636

RRIRRRPPRLPRPRPRPYDWPRP
shrunken log2 fold change: -0.0665

RRIRRRPPRLPRPRPRPYFAPRP
shrunken log2 fold change: 0.487

RRIRRRPPRLPRPRPRPYFFPRP
shrunken log2 fold change: -0.0972

RRIRRRPPRLPRPRPRPYFPPRP
shrunken log2 fold change: 0.31

RRIRRRPPRLPRPRPRPYHEPRP
shrunken log2 fold change: 0.016

RRIRRRPPRLPRPRPRPYHIPRP
shrunken log2 fold change: -0.365

RRIRRRPPRLPRPRPRPYHPPRP
shrunken log2 fold change: -0.34

RRIRRRPPRLPRPRPRPYKKPRP
shrunken log2 fold change: 0.142

RRIRRRPPRLPRPRPRPYLPPRP
shrunken log2 fold change: -0.456

RRIRRRPPRLPRPRPRPYMQPRP
shrunken log2 fold change: -0.264

RRIRRRPPRLPRPRPRPYQSPRP
shrunken log2 fold change: -0.145

RRIRRRPPRLPRPRPRPYQYPRP
shrunken log2 fold change: -0.0327

RRIRRRPPRLPRPRPRPYRTPRP
shrunken log2 fold change: -0.394
